Several values for one entry are separate records, joined by “and”; a condition that tells them apart may be missing. Equal values may be shown once. Entries after “also recorded” stand apart in the source; their conditions may differ.
Experiments:
[1] = system: human fibrocytes; experiment: Binding to human fibrocytes (confocal microscopy); format: cell-based; details: CD45 positive cells of PBMCs
Experimental: PBMCs were smeared on a microscope slide and fixed with acetone at 4° C. for 10 minutes. Following three times washing and rehydration with PBS the slides were incubated with mouse antiFLAG 1:100 dilution over night at 4° C. After washing the slides were incubated with Goat anti-mouse Alex Fluor 568 (to detect i-body by binding anti FLAG) at room temperature for 1 hour. The slides were then washed and incubated with Mouse anti-CD-45 FITC labeled antibody over night at 4° C. After further washing the slides were and mounted with ProLong Gold antifade mountant containing DAPI. Images were captured by using Nikon A1 confocal microscope.

[2] = system: normal and IPF lung fibroblasts; experiment: Wound healing invasion assay of lung fibroblasts; format: cell-based, human; details: 130 μg/ml
Outline: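 Normal and slow- or rapid-progressing IPF lung fibroblasts were plated overnight on basement membrane extract (50 μg/ml coating), then overlaid with BME polymerised at 37° C for 15 min. Wound invasion was imaged every 2 h for about 50 h and quantified by image analysis.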

[3] = system: Human platelet rich plasma; experiment: SDF-1α induced platelet aggregation; format: cell-based; details: 10 or 20 ug/mL, 100 nM SDF-1 alpha
Experimental: Experiments were carried out to examine whether the i-bodies could block platelet aggregation induced by SDF-1α. […] In the presence of negative control i-body 21H5 (or the isotype control for 12G5: mouse IgG2a). SDF-1 induced a robust and reproducible aggregation (the descending black curves, which indicate an increase in light transmission), which matches with what has been previously published.

[4] = target: T1, CXCR4 (Homo sapiens, UniProt P61073); experiment: Calcium flux assay (Screen Quest Fluo-8, FLIPR) in antagonist mode; format: cell-based; details: SDF-1 at EC80
T1 sequence (P61073 whole entry): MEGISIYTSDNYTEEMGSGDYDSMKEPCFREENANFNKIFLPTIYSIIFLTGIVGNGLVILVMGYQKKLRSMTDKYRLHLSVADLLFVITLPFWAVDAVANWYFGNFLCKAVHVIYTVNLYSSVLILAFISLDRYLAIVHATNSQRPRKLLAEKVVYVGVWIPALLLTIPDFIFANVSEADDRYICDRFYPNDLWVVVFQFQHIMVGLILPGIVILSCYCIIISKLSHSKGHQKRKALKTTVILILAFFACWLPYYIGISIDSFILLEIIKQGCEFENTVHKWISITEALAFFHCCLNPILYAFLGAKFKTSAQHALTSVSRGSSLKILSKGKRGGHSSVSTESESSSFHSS

[5] = target: T2, human CXCR4 (CXCR4 positive lipoparticles) (Homo sapiens, UniProt P61073); experiment: Biacore SPR kinetic binding to immobilised CXCR4 lipoparticles
T2 construct: purchased Integral Molecular LEV-101B
T2 sequence (P61073 whole entry): as above

[6] = target: T1, CXCR4; experiment: HitHunter cAMP assay in antagonist mode; format: cell-based; details: SDF-1 at EC80, forskolin 15 μM, read-out: cAMP inhibition IC50
[7] = CXCR4 expressed on lipoparticles (Table 4)

| binding to human fibrocytes [1] | Calcium Inhibition EC50 [4] | Kd [5, 7] | dissociation rate constant (kd) ([5]; off-rate, CXCR4 expressed on lipoparticles (Table 3)) | IC50 [6] [nM] | Molecule | invasion of normal lung fibroblasts [2] | migration of IPF lung fibroblasts ([2]; slow and rapid IPF progressors) | blocking of SDF-1α induced platelet aggregation [3] | dissociation rate constant (kd) [5, 7] |
| --- | --- | --- | --- | --- | --- | --- | --- | --- | --- |
| capable of binding to human fibrocytes | – | – | – | – | AM3-114: affinity matured CXCR4 i-body, SEQ ID NO: 40 | neither i-body had any effect | specifically inhibited migration | most effective; also recorded: most efficient | – |
| – | uM | 9.47 nM and 8.53 nM | 0.00998 | 225 | AM3-523: affinity matured CXCR4 i-body, SEQ ID NO: 56 (protein, protein sequence encoding AM3-523) LQVDIVPSQGEISVGESKFFLCQVAGSGSHMRISWFSPNGEKLTPNQQRISVVWNDDSSSTLTIYNANIDDAGIYKCVVWVGGYRHRALVLGEATVNVKIFQ | – | – | blocked aggregation to the same extent as the MAb12G5 | 9150 M⁻¹ s⁻¹ and 8610 M⁻¹ s⁻¹ |

— US11142588B2, “Polypeptides which bind C-X-C chemokine receptor type 4 (CXCR4) and methods of treating or reducing the risk of fibrosis and cancer” (AdAlta Limited, priority 2015, dated 2021)
